Test results from PMC12305242, “Native Top–Down Analysis of Membrane Protein Complexes Directly From In Vitro and Native Membranes” (Molecular & Cellular Proteomics : MCP, 2025).

How the values were obtained:
[1] = target: T1, dihydrolipoyl dehydrogenase (DLDH) (Escherichia coli, UniProt P0A9P0); test: native MS complex-up (HCD), mass shift of ejected monomer; format: binding; settings: endogenous ligand, native E. coli membrane vesicles; ligand identified by added mass and database search
T1 construct: gene lpdA; endogenous, untagged, ejected from native E. coli BL21 membrane vesicles
T1 sequence (P0A9P0 2-474): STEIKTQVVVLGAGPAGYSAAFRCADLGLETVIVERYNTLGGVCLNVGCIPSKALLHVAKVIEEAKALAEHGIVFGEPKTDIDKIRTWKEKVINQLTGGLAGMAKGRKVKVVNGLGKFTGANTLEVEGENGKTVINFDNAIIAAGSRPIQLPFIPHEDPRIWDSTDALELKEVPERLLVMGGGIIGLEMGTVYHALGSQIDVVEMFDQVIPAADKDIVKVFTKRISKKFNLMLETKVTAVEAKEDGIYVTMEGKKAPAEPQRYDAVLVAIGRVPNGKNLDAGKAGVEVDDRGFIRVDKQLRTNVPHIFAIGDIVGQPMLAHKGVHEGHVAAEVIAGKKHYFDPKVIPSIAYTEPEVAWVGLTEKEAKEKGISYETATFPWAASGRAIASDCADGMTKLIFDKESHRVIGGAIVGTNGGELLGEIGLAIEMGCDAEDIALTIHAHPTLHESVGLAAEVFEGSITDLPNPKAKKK

[2] = target: T2, β-barrel–assembly machinery (BAM) complex (Escherichia coli, UniProt P0A940); test: native MS of membrane vesicles, complex-up (HCD) of bound species; format: binding; settings: 100 uM MRL-494, 1 h on ice, native E. coli membrane vesicles; bound to the complex, subunit not resolved
T2 construct: gene bamA; endogenous, untagged heteropentamer BAM-ABCDE, lipidated proteoforms, about 199 kDa, ejected from native E. coli BL21 membrane vesicles; with Outer membrane protein assembly factor BamB; Outer membrane protein assembly factor BamC; Outer membrane protein assembly factor BamD; Outer membrane protein assembly factor BamE

[3] = target: the molecule itself; test: native MS; purified protein reconstituted into proteoliposomes (E. coli Polar Lipid Extract, 200 mM NH4Ac), 0.1% (v/v) 3-nitrobenzyl alcohol as supercharger, ejected by in-source activation; protein 2 to 10 uM; Q Exactive UHMR
[4] = target: the molecule itself; test: native MS; endogenous complexes ejected from E. coli BL21 native membrane vesicles (500 mM NH4Ac, 300 ug/ml protein, 5% (v/v) glycerol as supercharger), in-source activation; quadrupole isolation and complex-up analysis by HCD/CID; no detergent
[5] = target: T3, AqpZ, P60844; test: native MS; purified protein reconstituted into proteoliposomes (E. coli Polar Lipid Extract, 200 mM NH4Ac), 0.1% (v/v) 3-nitrobenzyl alcohol as supercharger, ejected by in-source activation; protein 2 to 10 uM; Q Exactive UHMR; settings: remark: other sources report otherwise
T3 chain: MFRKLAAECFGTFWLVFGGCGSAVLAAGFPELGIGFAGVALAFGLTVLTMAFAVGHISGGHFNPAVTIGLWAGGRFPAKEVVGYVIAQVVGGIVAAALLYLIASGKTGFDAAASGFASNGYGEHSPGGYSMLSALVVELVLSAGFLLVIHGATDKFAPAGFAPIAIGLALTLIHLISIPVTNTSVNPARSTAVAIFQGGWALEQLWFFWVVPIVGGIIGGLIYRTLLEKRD

Cc1cc2nc3c(=O)[nH]c(=O)nc-3n(C[C@H](O)[C@H](O)[C@H](O)COP(=O)(O)OP(=O)(O)OC[C@H]3O[C@@H](n4cnc5c(N)ncnc54)[C@H](O)[C@@H]3O)c2cc1C [flavin adenine dinucleotide]
native MS complex-up (HCD), mass shift of ejected monomer [1]: identified the ligand as flavin adenine dinucleotide, an endogenous cofactor of DLDH

NC(N)=NC(=O)CC(Nc1nc(N=C(N)N)nc(NC2CCC(NC(=O)Cn3nnc(-c4ccc(F)cc4)n3)CC2)n1)C1CC1 (centres unmarked) [MRL-494]
native MS of membrane vesicles, complex-up (HCD) of bound species [2]: The results provide direct evidence for MRL-494 BAM complex interaction

B1: semiSWEET (natural protein)
chain: MALIERIGKALEPLMLVMGLISPLATMPQLYKLYVSHSEHALGLSLTTWLLYSFIALLWTIYGIYHKNPTIWVGNCLGFLMYVAMVVGIIAHTGGTY
stoichiometry N [3]: 2

B2: dihydrolipoyl dehydrogenase (enzyme, UniProt P0A9P0 1-474, looked up)
chain: MSTEIKTQVVVLGAGPAGYSAAFRCADLGLETVIVERYNTLGGVCLNVGCIPSKALLHVAKVIEEAKALAEHGIVFGEPKTDIDKIRTWKEKVINQLTGGLAGMAKGRKVKVVNGLGKFTGANTLEVEGENGKTVINFDNAIIAAGSRPIQLPFIPHEDPRIWDSTDALELKEVPERLLVMGGGIIGLEMGTVYHALGSQIDVVEMFDQVIPAADKDIVKVFTKRISKKFNLMLETKVTAVEAKEDGIYVTMEGKKAPAEPQRYDAVLVAIGRVPNGKNLDAGKAGVEVDDRGFIRVDKQLRTNVPHIFAIGDIVGQPMLAHKGVHEGHVAAEVIAGKKHYFDPKVIPSIAYTEPEVAWVGLTEKEAKEKGISYETATFPWAASGRAIASDCADGMTKLIFDKESHRVIGGAIVGTNGGELLGEIGLAIEMGCDAEDIALTIHAHPTLHESVGLAAEVFEGSITDLPNPKAKKK
notes: dihydrolipoyl dehydrogenase (DLDH, gene lpdA), E. coli BL21, endogenous peripheral membrane protein; also called DLDH; lpdA; source: endogenous, E. coli BL21 membrane vesicles (N2 cavitation)
stoichiometry N [4]: 2

B3: AqpZ, P60844 1-231 (natural protein)
chain: T3 chain
stoichiometry N [5]: 4
